Laboratory results taken from publication PMC12321301.
Like-named read-outs stand apart in the source and are kept apart here.

Key:
[1] = biological target: T1, cardiac troponin I (cTnI) (UniProt P19429 2-210); experiment: direct ELASA
[2] = biological target: T1, cardiac troponin I (cTnI); experiment: direct ELASA; remark: listed apart in the source

T1 sequence (P19429 2-210): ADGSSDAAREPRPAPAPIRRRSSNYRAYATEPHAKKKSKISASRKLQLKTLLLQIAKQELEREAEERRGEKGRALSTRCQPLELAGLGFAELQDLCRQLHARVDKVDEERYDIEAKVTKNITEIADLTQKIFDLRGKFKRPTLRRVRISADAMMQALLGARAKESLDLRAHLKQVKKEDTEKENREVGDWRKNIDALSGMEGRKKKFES

Row | Binder | binding result [1] | binding result [2]
1 | CGTGCAGTACGCCAACCTTTCTCATGCGCTGCCCCTCTTA (ssDNA) [Tro4 (5'-biotin)] | binds | 
2 | CGCATGCCAAACGTTGCCTCATAGTTCCCTCCCCGTGTCC (ssDNA) [Tro6 (5'-thiol C6, HRP conjugate)] |  | binds
